Data published in patent US20090180995A1 (NATIONAL UNIVERSITY OF SINGAPORE, published 2009).

T1: hemextin B (Hemachatus haemachatus (African …))
T1 construct: also called peak B
T1 chain: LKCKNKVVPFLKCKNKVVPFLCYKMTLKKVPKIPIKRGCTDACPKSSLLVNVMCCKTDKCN

B1: hemextin AB complex (other)
chain 1: LKCKNKLVPFLSKTCPEGKNLCYKMTMLKMPKIPIKRGCTDACPKSSLLVKVVCCNKDKCN
chain 2: T1 chain
B2: hemextin A (other)
chain: B1 chain 1
notes: also called peak A

Assays:
TF-FVIIa complex = TF-FVIIa complex (human, UniProt P08709 61-466; P13726 33-295); assay: cell-based or functional assay
Sequence of TF-FVIIa complex (P08709 61-466 limits assumed, chain 1 of 2): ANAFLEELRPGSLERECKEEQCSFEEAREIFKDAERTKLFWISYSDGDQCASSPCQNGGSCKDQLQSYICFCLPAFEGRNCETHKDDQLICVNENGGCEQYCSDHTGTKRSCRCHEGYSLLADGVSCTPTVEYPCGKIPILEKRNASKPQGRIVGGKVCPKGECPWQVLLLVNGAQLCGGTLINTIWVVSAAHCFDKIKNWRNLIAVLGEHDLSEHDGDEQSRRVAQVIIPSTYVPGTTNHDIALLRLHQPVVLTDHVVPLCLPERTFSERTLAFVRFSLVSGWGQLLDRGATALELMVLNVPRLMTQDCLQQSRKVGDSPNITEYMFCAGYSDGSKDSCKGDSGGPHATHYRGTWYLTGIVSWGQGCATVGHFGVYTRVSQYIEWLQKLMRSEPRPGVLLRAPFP
Sequence of TF-FVIIa complex (P13726 33-295 limits assumed, chain 2 of 2): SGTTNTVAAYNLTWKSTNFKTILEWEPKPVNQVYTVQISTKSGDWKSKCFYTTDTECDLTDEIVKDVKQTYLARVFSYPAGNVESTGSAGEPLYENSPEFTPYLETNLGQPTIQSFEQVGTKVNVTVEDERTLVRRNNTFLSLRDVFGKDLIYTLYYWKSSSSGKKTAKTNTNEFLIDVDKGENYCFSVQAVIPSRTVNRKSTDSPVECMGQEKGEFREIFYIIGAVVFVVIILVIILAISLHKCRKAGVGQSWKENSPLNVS

plasma kallikrein = assay: cell-based or functional assay
hemextin B = target: T1, hemextin B; assay: ITC in phosphate, MOPS and Tris buffers at pH 7.4

Binder	IC50, inhibition of extrinsic tenase activity (FXa formation) (TF-FVIIa complex) [nM]	IC50, inhibition of plasma kallikrein amidolytic activity (plasma kallikrein) [nM]	ΔHbin (binding enthalpy corrected for protonation) (hemextin B) [kcal/mol]
B1	100	~5000	–
B2	–	–	-3.64
